The numbers were not newly measured in article PMC4976022, which cites them from elsewhere.

The target in the series is HPr (Escherichia coli) (UniProt P0AA04).

On to “EIN N-terminal domain (from UniProt P08839)”, for which the Kd (usually the free concentration of one partner at which half of the binding sites on the other are occupied at equilibrium, for simple one-to-one binding) was 7 µM.
